Measured values published in EP4748861A1 (Duality Biologics (Suzhou) Co., Ltd., dated 2025).

Columns and labels:
[1] = biological target: T1, human HER3 on cells (human, UniProt P21860 20-1342); test: flow cytometry on HER3-CT26 cells, PE anti-human IgG Fc
T1 construct: whole, on cells; Used as target for cells that carry HER3 alone (HER3-CT26) and for the anti-HER3 mAb on tumor lines that carry both receptors; the cell line is named under assay; also called HER3-CT26; HER3/CT26 (EGFR-, HER3+++)

[2] = biological target: T2, monkey EGFR (rhesus EGFR, C-His Tag, Kactus Biosystem, EGF-CM101) (rhesus monkey, UniProt P55245 25-645, limits assumed); test: SPR, Biacore T200; antibody captured on ProA chip, antigen as analyte; 1:1 Langmuir fit
T2 construct: Bought soluble protein used as SPR analyte; not shown: C-terminal His tag

[3] = biological target: T3, monkey HER3 (rhesus HER3, C-His Tag, Kactus Biosystem, HER-CM403) (rhesus monkey, UniProt H9ERZ8 20-643); test: as above
T3 construct: Bought soluble protein used as SPR analyte; not shown: C-terminal His tag
T3 sequence (H9ERZ8 entry or part of it): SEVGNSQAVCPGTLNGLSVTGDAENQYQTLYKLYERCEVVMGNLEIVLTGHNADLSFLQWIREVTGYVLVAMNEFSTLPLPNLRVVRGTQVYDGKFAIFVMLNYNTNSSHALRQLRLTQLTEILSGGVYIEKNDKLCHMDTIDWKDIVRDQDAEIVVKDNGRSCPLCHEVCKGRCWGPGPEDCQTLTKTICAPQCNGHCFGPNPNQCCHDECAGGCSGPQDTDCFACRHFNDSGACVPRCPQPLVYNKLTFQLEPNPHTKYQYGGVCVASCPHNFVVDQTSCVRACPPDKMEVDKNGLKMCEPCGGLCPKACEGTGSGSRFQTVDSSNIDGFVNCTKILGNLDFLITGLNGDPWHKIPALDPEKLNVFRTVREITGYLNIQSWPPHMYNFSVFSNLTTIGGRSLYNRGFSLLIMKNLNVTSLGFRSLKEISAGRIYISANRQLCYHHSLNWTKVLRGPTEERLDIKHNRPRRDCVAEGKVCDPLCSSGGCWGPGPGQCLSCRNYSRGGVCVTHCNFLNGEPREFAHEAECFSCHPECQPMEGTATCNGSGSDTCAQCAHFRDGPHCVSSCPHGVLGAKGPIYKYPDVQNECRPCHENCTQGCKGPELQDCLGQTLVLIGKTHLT

[4] = biological target: T4, human EGFR (His-Avi Tag, Kactus Biosystem, EGF-HM401) (human, UniProt P00533 25-645); test: as above
T4 construct: Bought soluble protein used as SPR analyte; also called hEGFR; not shown: His-Avi tag

[5] = biological target: T5, human HER3 (His-Avi Tag, Kactus Biosystem, HER-HM403) (human, UniProt P21860 20-643); test: as above
T5 construct: Bought soluble protein used as SPR analyte; also called hHER3; not shown: His-Avi tag

[6] = biological target: T4, human EGFR (His-Avi Tag, Kactus …); test: SPR, Biacore T200; ratio of affinities
[7] = biological target: T6, human EGFR on cells (human, UniProt P00533 25-1210); test: flow cytometry on EGFR-CT26 cells, PE anti-human IgG Fc
T6 construct: whole, on cells; the cell line is named under assay; also called EGFR-CT26; EGFR/CT26 (EGFR+++, HER3-)

Binder | EC50 [1] [nM] | Kd [2] [nM] | koff [2] [s⁻¹] | kon [2] [M⁻¹ s⁻¹] | Kd [3] [nM] | koff [3] [s⁻¹] | kon [3] [M⁻¹ s⁻¹] | Kd [4] [nM] | koff [4] [s⁻¹] | kon [4] [M⁻¹ s⁻¹] | Kd [5] [nM] | koff [5] [s⁻¹] | kon [5] [M⁻¹ s⁻¹] | fold weaker affinity than its affinity for HER3 [6] [fold] | fold weaker affinity than the parent EGFR antibody [6] [fold] | EC50 [7] [nM]
DBXT001-01 (bispecific antibody, human IgG1, kappa, H1/L1 are the EGFR arm, H2/L2 the HER3 arm; one arm for each antigen; also called BsAb DBXT001-01; EGFR-HER3 BsAb) heavy 1: not shown light 1: not shown heavy 2: not shown light 2: DIQMTQSPSSLSASVGDRVTITCRASQDISNYLNWYQQKPGKAPKLLIYYTSILHSGVPSRFSGSGSGTDYTFTISSLQPEDIATYFCQQGDTLPPTFGGGTKLEIKSSASTKGPSVFPLAPSSKSTSGGTAALGCLVKDYFPEPVTVSWNSGALTSGVHTFPAVLQSSGLYSLSSVVTVPSSSLGTQTYICNVNHKPSNTKVDKKVEPKSC | 1.96 | 11.3 | 0.000534 | 47200 | 0.563 | 0.000157 | 278000 | 9.29 | 0.00055 | 59200 | 0.56 | 0.00018 | 322000 | ~16 | ~3 | 1.9
anti-HER3 mAb (antibody, human IgG1, kappa, V domains shown, expressed in CHO cells; also called HER3 parent mAb; parent HER3 antibody) VH: QVQLQESGPGLVKPSETLSLTCTVSGYSITSAYYWNWIRQPFGKGLEWMGYISYDGRNNFNPSLKNRVTISRDTSKNQFSLKLSSVTAADTAVYYCARDGDYDYFDYWGQGTTVTVSS VL: DIQMTQSPSSLSASVGDRVTITCRASQDISNYLNWYQQKPGKAPKLLIYYTSILHSGVPSRFSGSGSGTDYTFTISSLQPEDIATYFCQQGDTLPPTFGGGTKLEIKR | 0.28 |  |  |  |  |  |  |  |  |  | 0.493 | 0.000379 | 768000 |  |  | 
